Test results taken from patent US20050037969A1.
Ends that are not written are not given here. * marks the point of attachment. Biotin = O=C1N[C@H]2[C@H](CS[C@H]2CCCCC(=O)*)N1

Tests used:
[1] = biological target: GST-NeDLG fusion protein (PDZ domains 1-2) (Mus musculus (Mouse)) (UniProt P70175); test: G assay titration of biotinylated peptide on plate-bound GST-PDZ, apparent affinity from saturation fit
[2] = biological target: GST-DLG1 fusion protein (PDZ domains 1-2) (human) (UniProt Q12959); test: as above
[3] = biological target: GST-TIP-1 PDZ domain fusion protein (Homo sapiens) (UniProt O14907); test: G assay competition against 20 uM TAX 20-mer
[4] = biological target: GST-TIP-1 PDZ domain fusion protein (Homo sapiens) (UniProt O14907); test: competition for TIP1 binding, reference CD95
[5] = biological target: GST-TIP-1 PDZ domain fusion protein (Homo sapiens) (UniProt O14907); test: G assay competition against CD95 20-mer
[6] = biological target: GST-TIP-1 PDZ domain fusion protein (Homo sapiens) (UniProt O14907); test: G assay competition against 20 uM CD95 20-mer
[7] = biological target: GST-WWP3 (MAGI-1) fusion protein (PDZ domains 1-2) (Homo sapiens) (UniProt Q96QZ7); test: G assay format, competition against labeled DNAM-1 peptide

Biotin-KDITSDSENSNFRNEIQSLV [CD95 (Fas) C-terminal peptide AA13L, biotinylated] gave a Kd [1] of 54 µM and a Kd [2] of 54 µM.

Binder RNEIQSLV [Fas (CD95) 8-mer competitor peptide RNEIQSLV (unlabeled)] has an IC50 [3] of 500 µM.

Binder Biotin-ISGTPTSTMVHGMTSSSSVV [Clasp-2 C-terminal peptide AA2L, biotinylated] has a Kd [1] of 7.5 µM and a Kd [2] of 21 µM.

With KHFRETEV [8-mer peptide corresponding to the C-terminus of TAX] the fold better competition for binding to TIP1 than CD95 [4] was 1000 fold, the concentration that effectively blocked binding [5] was 100 µM and the IC50 [6] was 20 to 100 µM.

Work on SRRPKTRV [peptide corresponding to the C-terminal 8 amino acids of DNAM-1] yielded an inhibitor concentration giving at least 50% inhibition [7] of 20 to 200 µM.
